# Experimental data as given in US20240352118A1.
# Assays:
# [1] = molecular target: human TIGIT on cells (human) (UniProt Q495A1); assay: flow cytometry, blocking of human CD155-mouse IgG2a Fc (2 ug/mL) binding to CHO-huTIGIT cells
# [2] = molecular target: cynomolgus TIGIT on cells (cynomolgus monkey); assay: flow cytometry on CHO-cynoTIGIT cells
# [3] = molecular target: human TIGIT on cells (human) (UniProt Q495A1); assay: flow cytometry on activated human primary T cells (CD3/CD28 beads + IL-2, 48 h), fluorescent secondary antibody; y axis Positive cells(%), x axis Concentration(nM); EC50 from the table drawn under the curves
# [4] = molecular target: human TIGIT-his protein (human) (UniProt Q495A1); assay: BLI (ForteBio), IgG on AHQ sensor, 100 nM TIGIT-his, monovalent, 1:1 model
# Chain of human TIGIT-his protein (human) (Q495A1 22-141): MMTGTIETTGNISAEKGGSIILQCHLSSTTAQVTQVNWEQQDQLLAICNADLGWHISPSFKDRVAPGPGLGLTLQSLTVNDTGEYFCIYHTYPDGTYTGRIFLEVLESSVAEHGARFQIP
# [5] = molecular target: cynomolgus TIGIT-his protein (cynomolgus monkey); assay: as above
# Chain of cynomolgus TIGIT-his protein (cynomolgus monkey) (chain, as listed by the source): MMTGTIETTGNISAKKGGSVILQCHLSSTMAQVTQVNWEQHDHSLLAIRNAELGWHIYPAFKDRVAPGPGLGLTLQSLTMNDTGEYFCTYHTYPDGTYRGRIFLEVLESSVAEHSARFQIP
# [6] = molecular target: human TIGIT on cells (human) (UniProt Q495A1); assay: flow cytometry on CHO-huTIGIT cells
# Chain of human TIGIT on cells (human) (Q495A1 22-244): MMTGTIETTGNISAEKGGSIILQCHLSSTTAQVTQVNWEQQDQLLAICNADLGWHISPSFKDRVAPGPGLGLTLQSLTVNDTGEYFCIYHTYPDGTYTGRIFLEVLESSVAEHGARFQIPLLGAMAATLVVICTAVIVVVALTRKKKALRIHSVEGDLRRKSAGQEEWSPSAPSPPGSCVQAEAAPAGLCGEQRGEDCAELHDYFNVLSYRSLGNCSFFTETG
# Chain of cynomolgus TIGIT on cells (cynomolgus monkey) (chain, as listed by the source): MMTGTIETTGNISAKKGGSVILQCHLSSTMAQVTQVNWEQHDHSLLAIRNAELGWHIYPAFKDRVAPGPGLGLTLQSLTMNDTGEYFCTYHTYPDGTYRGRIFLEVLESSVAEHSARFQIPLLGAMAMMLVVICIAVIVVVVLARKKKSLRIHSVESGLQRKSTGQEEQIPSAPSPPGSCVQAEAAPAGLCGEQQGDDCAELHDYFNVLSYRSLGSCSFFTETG
substance,measurement,setting,value
Tiragolumab (antibody),IC50,[1],0.63 nM
same,EC50,[2],4.18 nM
same,EC50,[3],0.274 nM
same,Kd,[4],0.87 nM
same,Kd,[5],3.5 nM
same,EC50,[6],1.35 nM
